Laboratory results as given in US8877192B2, “Rage fusion proteins and methods of use” (TransTech Pharma, LLC, priority 2004, dated 2014).

Key:
[1] = system: amyloid-beta (A-beta); assay: Competition of a RAGE ligand with immobilized amyloid-beta for binding to the fusion protein; settings: TTP-4000 initial solution diluted 1:10 or 1:30; RAGE ligand FAC 10 μM
Experimental: The fusion protein of the present invention may also be used to identify compounds having the ability to bind to RAGE.
Known RAGE ligands were coated onto the surface of Maxisorb plates at a concentration of 5 micrograms per well. Plates were incubated at 4° C. overnight. Following ligand incubation, plates were aspirated and a blocking buffer of 1% BSA in 50 mM imidizole buffer (pH 7.2) was added to the plates for 1 hour at room temperature. The plates were then aspirated and/or washed with wash buffer (20 mM Imidizole, 150 mM NaCl, 0.05% Tween-20, 5 mM CaCl2 and 5 mM MgCl2, pH 7.2). […] The fusion protein was added at increasing dilutions of the initial sample. The RAGE fusion protein was allowed to incubate with the immobilized ligand at 37° C. for one hour after which the plate was washed and assayed for binding of the fusion protein. Binding was detected by the addition of an immunodetection complex containing a monoclonal mouse anti-human IgG1 diluted 1:11,000 to a final assay concentration (FAC) of 21 ng/100 μL, a biotinylated goat anti-mouse IgG diluted 1:500, to a FAC of […], and an avidin-linked alkaline phosphatase. […] Binding of the complex to the immobilized fusion protein was quantified by measuring conversion of PNPP to para-nitrophenol (PNP) which was measured spectrophotometrically at 405 nm. […]

[2] = system: diabetic rat model of restenosis; assay: Diabetic rat model of restenosis (balloon injury of left common carotid artery); format: in vivo, Zucker diabetic rats; settings: 4 days after injury; dose-responsive; FIG. 13B
Experimental: In these experiments, balloon injury of left common carotid artery was performed in Zucker diabetic and nondiabetic rats using standard procedure. […] A maintenance dose was delivered every other day until day 7 after injury (i.e., at day 1, 3, 5 and 7 after injury). The maintenance dose was high=1 mg/animal for one group, or low=0.3 mg/animal for the second group. To measure vascular smooth muscle cell (VSMC) proliferation, animals were sacrificed at 4 days and 21 days after injury. For the measurement of cell proliferation, 4 day animals received intraperitoneal injection of bromodeoxyuridine (BrDdU) 50 mg/kg at 18, 12, and 2 hours before euthanasia. After sacrifice, the entire left and right carotid arteries were harvested. Specimens were stored in Histochoice for at least 24 hours before embedding. […] A fluorescence labeled goat anti-mouse secondary antibody was applied. The number of BrdU-positive nuclei per section were counted by two observers blinded to the treatment regimens.
The remaining rats were sacrificed at 21 days for morphometric analysis. Morphometric analyses were performed by an observer blinded to the study groups, using computerized digital microscopic planimetry software Image-Pro Plus on serial sections, ([…]) carotid arteries stained by Van Gieson staining All data were expressed as mean±SD. […]

[3] = system: transgenic mice expressing the human Swedish mutant amyloid precursor protein (APP); assay: Mouse model of AD (APP transgenic mice); format: in vivo
Experimental: Experiments were performed to evaluate whether TTP-4000 could affect amyloid formation and cognitive dysfunction in a mouse model of AD. The experiments utilized transgenic mice expressing the human Swedish mutant amyloid precursor protein (APP) under the control of the PDGF-B chain promoter. Over time, these mice generate high levels of the RAGE ligand, amyloid beta (Aβ).
The APP mice (male) used in this experiment were designed by microinjection of the human APP gene (with the Swedish and London mutations) into mouse eggs under the control of the platelet-derived growth factor B (PDGF-B) chain gene promoter. The mice were generated on a C57BL/6 background and were developed by Molecular Therapeutics Inc. Animals were fed ad libitum and maintained by brother sister mating. The mice generated from this construct develop amyloid deposits starting at 6 months of age. Animals were aged for 6 months and then maintained for 90 days and sacrificed for amyloid quantification.
APP transgenic mice were administered vehicle or TTP4000 every other day [qod (i.p.)] for 90 days starting at 6 months of age. At the end of the experiment, animals were sacrificed and examined for Aβ plaque burden in the brain (i.e., plaque number). A 6-month control APP group was used to determine the baseline of amyloid deposits. In addition, at the end of the study, the animals were subjected to behavioral (Morris water maze) analysis. The investigators were blinded to the study compounds. Samples were given to the mice at 0.25 ml/mouse/every other day.
For histological examination, the animals were anesthetized with an intraperitoneal injection (IP) of sodium pentobarbital (50 mg/kg). The animals were transcardially perfused with 4° C., phosphate-buffered saline (PBS) followed by 4% paraformaldehyde. The brains were removed and placed in 4% paraformaldehyde over night. The brains were processed to paraffin and embedded. Ten serial 30-μm thick sections through the brain were obtained. Sections were subjected to primary antibody overnight at 4° C. (Aβ peptide antibody) in order to detect the amyloid deposits in the brain of the transgenic animals (Guo et al., J. Neurosci., 22:5900-5909 (2002)). Sections were washed in Tris-buffered saline (TBS) and secondary antibody was added and incubated for 1 hour at room temperature. After washing, the sections were incubated as instructed in the Vector ABC Elite kit (Vector Laboratories) and stained with […] (DAB). The reactions were stopped in water and cover-slipped after treatment with xylene. The amyloid area in each section was determined with a computer-assisted image analysis system, consisting of a Power Macintosh computer equipped with a Quick Capture frame grabber card, Hitachi CCD camera mounted on an Olympus microscope and camera stand. NIH Image Analysis Software, v. 1.55 was used. The images were captured and the total area of amyloid was determined over the ten sections. A single operator blinded to treatment status performed all measurements. Summing the amyloid volumes of the sections and dividing by the total number of sections was done to calculate the amyloid volume.
For quantitative analysis, an enzyme-linked immunosorbent assay (ELISA) was used to measure the levels of human total Aβ, Aβtotal and Aβ1-42 in the brains of APP transgenic mice (Biosource International, Camarillo, Calif.). Aβtotal and Aβ1-42 were extracted from mouse brains by guanidine hydrochloride and quantified as described by the manufacturer. […]

B1: TTP-4000: four domain RAGE fusion protein (SEQ ID NO: 32): human RAGE amino acids 1-251 linked to CH2 and CH3 domains of human IgG (protein)
chain: MAAGTAVGAWALVLSLWGAVVGAQNITARIGEPLVLKCKGAPKKPPQRLEWKLNTGRTEAWKVLSPQGGGPWDSVARVLPNGSLFLPAVGIQDEGIFRCQAMNRNGKETKSNYRVRVYQIPGKPEIVDSASELTAGVPNKVGTCVSEGSYPAGTLSWHLDGKPLVPNEKGVSVKEQTRRHPETGLFTLQSELMVTPARGGDPRPTFSCSFSPGLPRHRALRTAPIQPRVWEPVPLEEVQLVVEPEGGAVAPPSVFLFPPKPKDTLMISRTPEVTCVVVDVSHEDPEVKFNWYVDGVEVHNAKTKPREEQYNSTYRVVSVLTVLHQDWLNGKEYKCKVSNKALPAPIEKTISKAKGQPREPQVYTLPPSRDELTKNQVSLTCLVKGFYPSDIAVEWESNGQPENNYKTTPPVLDSDGSFFLYSKLTVDKSRWQQGNVFSCSVMHEALHNHYTQKSLSLSPGK
[1]
  block of binding of fusion protein to immobilized amyloid-beta by the RAGE ligand: completely inhibited
[2]
  vascular smooth muscle cell proliferation (BrdU-positive nuclei): significantly reduced
[3]; data not shown
  inflammatory cytokines IL-1 and TNF-α: reduce
[3]; treated for 3 months, versus vehicle and human IgG1, FIG. 14A
  Aβ plaques in the brain: fewer Aβ plaques
[3]; treated for 3 months, versus vehicle and human IgG1, FIG. 14B
  cognitive dysfunction (Morris water maze): less cognitive dysfunction
